Measured values from publication PMC13220886 (Science Advances, 2026).

B1: CHT1 (endocytosis-resistant CHT1-LV/AA, called WT CHT1) (Homo sapiens; L531A/S263A/V532A) (protein)
chain: MAFHVEGLIAIIVFYLLILLVGIWAAWRTKNSGSAEERSEAIIVGGRDIGLLVGGFTMTATWVGGGYINGTAEAVYVPGYGLAWAQAPIGYSLSLILGGLFFAKPMRSKGYVTMLDPFQQIYGKRMGGLLFIPALMGEMFWAAAIFSALGATISVIIDVDMHISVIISALIATLYTLVGGLYSVAYTDVVQLFCIFVGLWISVPFALSHPAVADIGFTAVHAKYQKPWLGTVDSSEVYSWLDSFLLLMLGGIPWQAYFQRVLASSSATYAQVLSFLAAFGCLVMAIPAILIGAIGASTDWNQTAYGLPDPKTTEEADMILPIVLQYLCPVYISFFGLGAVSAAVMSSADSSILSASSMFARNIYQLSFRQNASDKEIVWVMRITVFVFGASATAMALLTKTVYGLWYLSSDLVYIVIFPQLLCVLFVKGTNTYGAVAGYVSGLFLRITGGEPYLYLQPLIFYPGYYPDDNGIYNQKFPFKTLAMVTSFLTNICISYLAKYLFESGTLPPKLDVFDAVVARHSEENMDKTIAAKNENIKLDELALVKPRQSMTLSSTFTNKEAFLDVDSSPEGSGTEDNLQ
notes: full length; transient transfection, HeLa cells
B2: CHT1 (endocytosis-resistant CHT1-LV/AA, called WT CHT1) (Homo sapiens; L531A/V532A) (protein)
chain: MAFHVEGLIAIIVFYLLILLVGIWAAWRTKNSGSAEERSEAIIVGGRDIGLLVGGFTMTATWVGGGYINGTAEAVYVPGYGLAWAQAPIGYSLSLILGGLFFAKPMRSKGYVTMLDPFQQIYGKRMGGLLFIPALMGEMFWAAAIFSALGATISVIIDVDMHISVIISALIATLYTLVGGLYSVAYTDVVQLFCIFVGLWISVPFALSHPAVADIGFTAVHAKYQKPWLGTVDSSEVYSWLDSFLLLMLGGIPWQAYFQRVLSSSSATYAQVLSFLAAFGCLVMAIPAILIGAIGASTDWNQTAYGLPDPKTTEEADMILPIVLQYLCPVYISFFGLGAVSAAVMSSADSSILSASSMFARNIYQLSFRQNASDKEIVWVMRITVFVFGASATAMALLTKTVYGLWYLSSDLVYIVIFPQLLCVLFVKGTNTYGAVAGYVSGLFLRITGGEPYLYLQPLIFYPGYYPDDNGIYNQKFPFKTLAMVTSFLTNICISYLAKYLFESGTLPPKLDVFDAVVARHSEENMDKTIAAKNENIKLDELALVKPRQSMTLSSTFTNKEAFLDVDSSPEGSGTEDNLQ
notes: as for B1
B3: CHT1 (endocytosis-resistant CHT1-LV/AA, called WT CHT1) (Homo sapiens; L531A/V532A/W62F) (protein)
chain: MAFHVEGLIAIIVFYLLILLVGIWAAWRTKNSGSAEERSEAIIVGGRDIGLLVGGFTMTATFVGGGYINGTAEAVYVPGYGLAWAQAPIGYSLSLILGGLFFAKPMRSKGYVTMLDPFQQIYGKRMGGLLFIPALMGEMFWAAAIFSALGATISVIIDVDMHISVIISALIATLYTLVGGLYSVAYTDVVQLFCIFVGLWISVPFALSHPAVADIGFTAVHAKYQKPWLGTVDSSEVYSWLDSFLLLMLGGIPWQAYFQRVLSSSSATYAQVLSFLAAFGCLVMAIPAILIGAIGASTDWNQTAYGLPDPKTTEEADMILPIVLQYLCPVYISFFGLGAVSAAVMSSADSSILSASSMFARNIYQLSFRQNASDKEIVWVMRITVFVFGASATAMALLTKTVYGLWYLSSDLVYIVIFPQLLCVLFVKGTNTYGAVAGYVSGLFLRITGGEPYLYLQPLIFYPGYYPDDNGIYNQKFPFKTLAMVTSFLTNICISYLAKYLFESGTLPPKLDVFDAVVARHSEENMDKTIAAKNENIKLDELALVKPRQSMTLSSTFTNKEAFLDVDSSPEGSGTEDNLQ
notes: as for B1
B4: CHT1 (endocytosis-resistant CHT1-LV/AA, called WT CHT1) (Homo sapiens; L531A/V532A/W141F) (protein)
chain: MAFHVEGLIAIIVFYLLILLVGIWAAWRTKNSGSAEERSEAIIVGGRDIGLLVGGFTMTATWVGGGYINGTAEAVYVPGYGLAWAQAPIGYSLSLILGGLFFAKPMRSKGYVTMLDPFQQIYGKRMGGLLFIPALMGEMFFAAAIFSALGATISVIIDVDMHISVIISALIATLYTLVGGLYSVAYTDVVQLFCIFVGLWISVPFALSHPAVADIGFTAVHAKYQKPWLGTVDSSEVYSWLDSFLLLMLGGIPWQAYFQRVLSSSSATYAQVLSFLAAFGCLVMAIPAILIGAIGASTDWNQTAYGLPDPKTTEEADMILPIVLQYLCPVYISFFGLGAVSAAVMSSADSSILSASSMFARNIYQLSFRQNASDKEIVWVMRITVFVFGASATAMALLTKTVYGLWYLSSDLVYIVIFPQLLCVLFVKGTNTYGAVAGYVSGLFLRITGGEPYLYLQPLIFYPGYYPDDNGIYNQKFPFKTLAMVTSFLTNICISYLAKYLFESGTLPPKLDVFDAVVARHSEENMDKTIAAKNENIKLDELALVKPRQSMTLSSTFTNKEAFLDVDSSPEGSGTEDNLQ
notes: as for B1
B5: CHT1 (endocytosis-resistant CHT1-LV/AA, called WT CHT1) (Homo sapiens; L531A/V532A/W406F) (protein)
chain: MAFHVEGLIAIIVFYLLILLVGIWAAWRTKNSGSAEERSEAIIVGGRDIGLLVGGFTMTATWVGGGYINGTAEAVYVPGYGLAWAQAPIGYSLSLILGGLFFAKPMRSKGYVTMLDPFQQIYGKRMGGLLFIPALMGEMFWAAAIFSALGATISVIIDVDMHISVIISALIATLYTLVGGLYSVAYTDVVQLFCIFVGLWISVPFALSHPAVADIGFTAVHAKYQKPWLGTVDSSEVYSWLDSFLLLMLGGIPWQAYFQRVLSSSSATYAQVLSFLAAFGCLVMAIPAILIGAIGASTDWNQTAYGLPDPKTTEEADMILPIVLQYLCPVYISFFGLGAVSAAVMSSADSSILSASSMFARNIYQLSFRQNASDKEIVWVMRITVFVFGASATAMALLTKTVYGLFYLSSDLVYIVIFPQLLCVLFVKGTNTYGAVAGYVSGLFLRITGGEPYLYLQPLIFYPGYYPDDNGIYNQKFPFKTLAMVTSFLTNICISYLAKYLFESGTLPPKLDVFDAVVARHSEENMDKTIAAKNENIKLDELALVKPRQSMTLSSTFTNKEAFLDVDSSPEGSGTEDNLQ
notes: as for B1
B6: CHT1 (endocytosis-resistant CHT1-LV/AA, called WT CHT1) (Homo sapiens; L531A/Q259A/V532A) (protein)
chain: MAFHVEGLIAIIVFYLLILLVGIWAAWRTKNSGSAEERSEAIIVGGRDIGLLVGGFTMTATWVGGGYINGTAEAVYVPGYGLAWAQAPIGYSLSLILGGLFFAKPMRSKGYVTMLDPFQQIYGKRMGGLLFIPALMGEMFWAAAIFSALGATISVIIDVDMHISVIISALIATLYTLVGGLYSVAYTDVVQLFCIFVGLWISVPFALSHPAVADIGFTAVHAKYQKPWLGTVDSSEVYSWLDSFLLLMLGGIPWQAYFARVLSSSSATYAQVLSFLAAFGCLVMAIPAILIGAIGASTDWNQTAYGLPDPKTTEEADMILPIVLQYLCPVYISFFGLGAVSAAVMSSADSSILSASSMFARNIYQLSFRQNASDKEIVWVMRITVFVFGASATAMALLTKTVYGLWYLSSDLVYIVIFPQLLCVLFVKGTNTYGAVAGYVSGLFLRITGGEPYLYLQPLIFYPGYYPDDNGIYNQKFPFKTLAMVTSFLTNICISYLAKYLFESGTLPPKLDVFDAVVARHSEENMDKTIAAKNENIKLDELALVKPRQSMTLSSTFTNKEAFLDVDSSPEGSGTEDNLQ
notes: as for B1
B7: CHT1 (endocytosis-resistant CHT1-LV/AA, called WT CHT1) (Homo sapiens; L531A/V532A/Y91F) (protein)
chain: MAFHVEGLIAIIVFYLLILLVGIWAAWRTKNSGSAEERSEAIIVGGRDIGLLVGGFTMTATWVGGGYINGTAEAVYVPGYGLAWAQAPIGFSLSLILGGLFFAKPMRSKGYVTMLDPFQQIYGKRMGGLLFIPALMGEMFWAAAIFSALGATISVIIDVDMHISVIISALIATLYTLVGGLYSVAYTDVVQLFCIFVGLWISVPFALSHPAVADIGFTAVHAKYQKPWLGTVDSSEVYSWLDSFLLLMLGGIPWQAYFQRVLSSSSATYAQVLSFLAAFGCLVMAIPAILIGAIGASTDWNQTAYGLPDPKTTEEADMILPIVLQYLCPVYISFFGLGAVSAAVMSSADSSILSASSMFARNIYQLSFRQNASDKEIVWVMRITVFVFGASATAMALLTKTVYGLWYLSSDLVYIVIFPQLLCVLFVKGTNTYGAVAGYVSGLFLRITGGEPYLYLQPLIFYPGYYPDDNGIYNQKFPFKTLAMVTSFLTNICISYLAKYLFESGTLPPKLDVFDAVVARHSEENMDKTIAAKNENIKLDELALVKPRQSMTLSSTFTNKEAFLDVDSSPEGSGTEDNLQ
notes: as for B1

substrate: C[N+](C)(C)CCO; assay: [3H]-choline uptake, saturation kinetics in transfected HeLa cells; assay type: cell-based, Homo sapiens; conditions: pH 7.4, 137 mM NaCl, room temperature, 2 min, LV/AA background, labelled compound
Description: [3H]-choline uptake, saturation kinetics in transfected HeLa cells on CHT1 (endocytosis-resistant CHT1-LV/AA, called WT CHT1)

B1 was tested. Which Km did it give?
Its Km is 14.60 ± 2.03 µM.

And the Vmax?
Its Vmax is 0.000659 µmol/min/mg.

How did the Km turn out when B2 was run?
The Km was 12.17 ± 1.06 µM.

What about the Vmax of the same molecule?
The Vmax was 0.00118 µmol/min/mg.

B3 was tested. Which Km did it give?
Its Km is 401.72 ± 32.24 µM.

And the Vmax?
Its Vmax is 0.000627 µmol/min/mg.

Which results are given for B4?
Km: 270.81 ± 14.66 µM; Vmax: 0.000588 µmol/min/mg

Which results are given for B5?
Km: 357.60 ± 99.13 µM; Vmax: 0.000543 µmol/min/mg

For B6, which Km is on record?
Its Km is 10.08 ± 1.50 µM.

And the Vmax?
The Vmax was 0.000387 µmol/min/mg.

Which results are given for B7?
Km: 22.23 ± 1.91 µM; Vmax: 0.000353 µmol/min/mg

target: T1, sfCHT (Salimicrobium flavidum, UniProt A0A1N7IZC0); assay: inhibition of [3H]-choline uptake into proteoliposomes; assay type: biochemical; conditions: 1 μM HC-3, 1 μM choline, 137 mM NaCl, pH 7.4, room temperature
T1 construct: gene SAMN05421687_10333; full length, C-terminal 3C-His10 tag (cut by 3C for cryo-EM), E. coli BL21; monomer in DDM or E. coli polar lipid proteoliposomes; residues 22-69 and 81-543 built
T1 sequence (A0A1N7IZC0 entry or part of it): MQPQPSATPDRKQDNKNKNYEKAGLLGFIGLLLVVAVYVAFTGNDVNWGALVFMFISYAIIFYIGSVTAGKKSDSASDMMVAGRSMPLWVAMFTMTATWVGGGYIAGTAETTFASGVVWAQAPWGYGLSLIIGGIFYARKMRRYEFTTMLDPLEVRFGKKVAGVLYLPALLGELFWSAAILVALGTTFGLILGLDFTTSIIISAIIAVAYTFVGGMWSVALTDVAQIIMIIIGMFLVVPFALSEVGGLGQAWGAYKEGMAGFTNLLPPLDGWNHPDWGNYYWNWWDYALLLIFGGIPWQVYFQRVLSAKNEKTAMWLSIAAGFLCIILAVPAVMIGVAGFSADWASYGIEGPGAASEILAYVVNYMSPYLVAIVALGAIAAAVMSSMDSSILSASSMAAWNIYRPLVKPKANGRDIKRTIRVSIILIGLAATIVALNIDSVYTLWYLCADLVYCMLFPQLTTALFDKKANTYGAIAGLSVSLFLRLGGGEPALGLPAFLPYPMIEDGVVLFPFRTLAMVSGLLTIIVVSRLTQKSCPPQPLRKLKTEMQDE

How did the “uptake at 1 μM HC-3” value turn out when C[N+]1(C)CCOC(O)(c2ccc(-c3ccc(C4(O)C[N+](C)(C)CCO4)cc3)cc2)C1 (stereo not drawn) [HC-3] was run?
Its value is “selectively suppressed Na^+-dependent uptake but had no effect in Na^+-free conditions”.
